Measurements from paper PMC5570898.

Target: CHL1 on ventral midbrain dopaminergic neurons (mouse (endogenous in ventral midbrain primary neurons)) (UniProt P70232)

increase of TH+ neurite branching in E12.5 VM primary cultures on bound CHL1, against the Fc control: 2.4 fold | increase of TH+ neurite branching in E12.5 VM primary cultures with soluble CHL1, against the PDL control: 5 fold | increase of TH+ neurite length in E12.5 VM primary cultures on bound CHL1, against the Fc control: 1.8 fold | increase of TH+ neurite length in E12.5 VM primary cultures with soluble CHL1, against the PDL control: 2 fold
Substance: CHL1 recombinant protein (from UniProt P70232 26-1083) (natural protein)
